Measured values reported in US8383806B2, “Method of reversing carboplatin resistance by inhibition of HGFIN” (University of Medicine and Dentistry of New Jersey, priority 2000, dated 2013).

What was measured:
[1] = system: cancer stem cells from breast cancer cell lines; assay: Drug exposure of breast cancer stem cell clones; type: cell-based; settings: selected clones
Description: Breast cancer cells are cultured in the presence of each or combinations of the anti-cancer agents 5-FU, Methothrexate, and Cytarabine. […] Cells are passaged at least 5 times in high concentrations of anti-cancer drugs. […] Breast cancer cells were subjected to rounds of exposure to 5-fluorouracil (5-FU), methotrexate, and cytarabine.

HGFIN = biological target: T1, HGFIN (Homo sapiens, UniProt Q14956); assay: SELDI ProteinChip (PS1) HGFIN-SP interaction; type: binding; settings: HGFIN covalently bound to PS1 chip, SP added
T1 construct: made in house
T1 sequence (Q14956 23-560 isoform Q14956-2): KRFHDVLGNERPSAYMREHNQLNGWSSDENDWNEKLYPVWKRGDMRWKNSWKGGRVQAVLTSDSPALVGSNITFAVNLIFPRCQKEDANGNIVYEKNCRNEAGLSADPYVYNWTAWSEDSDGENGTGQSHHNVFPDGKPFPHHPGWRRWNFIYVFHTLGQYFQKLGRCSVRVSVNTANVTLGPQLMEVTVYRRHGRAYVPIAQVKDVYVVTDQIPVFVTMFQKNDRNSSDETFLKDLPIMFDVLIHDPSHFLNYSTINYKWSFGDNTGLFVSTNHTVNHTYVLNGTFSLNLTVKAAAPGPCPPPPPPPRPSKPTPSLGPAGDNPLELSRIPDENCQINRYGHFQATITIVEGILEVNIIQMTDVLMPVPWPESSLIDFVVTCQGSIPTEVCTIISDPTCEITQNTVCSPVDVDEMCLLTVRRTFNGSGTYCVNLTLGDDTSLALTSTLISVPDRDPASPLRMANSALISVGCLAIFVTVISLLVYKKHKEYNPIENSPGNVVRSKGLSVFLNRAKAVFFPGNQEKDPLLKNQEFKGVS
Description: Before studying the interaction between SP and HGFIN, each protein was profiled by the Surface Enhanced Laser Desorption/Ionization (SELDI) ProteinChip Array technology (Ciphergen Biosystems Inc., Fremont, Calif.). Normal phase (NP1) arrays were used for profiling and preactivated surface arrays (PS1) for HGFIN-SP interaction. For profiling studies, 2 μg of purified HGFIN or 2 μg of SP were spotted directly onto the NP1 arrays. Prior to adding of the proteins, chips were pre-wet with PBS. Arrays were incubated at room temperature until the protein was absorbed, which took approximately 5 to 10 minutes. […] Chips were immediately analyzed using linear, time-lag focusing laser desorption/ionization SELDI-time-of-flight mass spectrometer (Model PBS II). Accurate mass was determined by collecting approximately 150 averaged laser shots. […]
HGFIN-SP interaction was studied by pre-treating the PS1 chips with 50% acetonitrile for 3 minutes. […] CHCA was applied and the non-covalently bound SP was detected with the SELDI-Time of Flight Mass spectrometer as described for the profiling studies for HGFIN.
Protein-protein interactions were performed with the PS1 protein chip since this chip was determined to covalently bind HGFIN. SP was added to the chip and then detected with the SELDI system.

[2] = biological target: T2, Fibronectin-Fragment III-C (FN-IIIC) (Homo sapiens, UniProt P02751); assay: SELDI ProteinChip (PS1) positive control, FN-IIIC and SP; type: binding; settings: FN-IIIC covalently coated
T2 construct: 20 ng fibronectin, fragment III-C (positive control); purchased Sigma (St Louis, Mo.)
T2 sequence (P02751 627-702 limits assumed): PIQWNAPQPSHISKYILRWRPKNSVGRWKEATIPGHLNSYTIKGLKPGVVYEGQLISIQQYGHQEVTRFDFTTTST
Description: HGFIN-SP interaction was studied by pre-treating the PS1 chips with 50% acetonitrile for 3 minutes. After this, the chips were incubated for 45 minutes with the following: 2.5 μg HGFIN (experimental sample), anti-Id2, an unrelated IgG regarding its ability to complex with SP and was therefore treated as a negative control, rabbit anti-SP (positive control) or 20 ng fibronectin, fragment III-C (positive control). The arrays were blocked for 25 minutes with 1 M ethanolamine and washed with PBS+0.5% TRITON-X (2×) and a final PBS wash step. After this the chips were washed with PBS+TRITON-X, PBS, rinsed with 5 mM HEPES and then dried. CHCA was applied and the non-covalently bound SP was detected with the SELDI-Time of Flight Mass spectrometer as described for the profiling studies for HGFIN.
Fibronectin has been reported to bind SP. Therefore, this property of fibronectin was used as a positive control for SP interaction on the SELDI system. […] Similar results were shown with another positive control: rabbit anti-SP (covalently bound) and SP. No peak was detected in two negative controls, which consisted of bovine serum albumin or an unrelated antibody (anti-Id2) covalently bound to the surface of PS1.

non-covalently bound SP detected on HGFIN-coated PS1 chip (SELDI) (HGFIN)	SP detected on FN-IIIC-coated PS1 chip (SELDI) [2]	Compound	response of cancer stem cells to the drug [1]
		O=c1[nH]cc(F)c(=O)[nH]1 [5-FU, 5-fluorouracil]	resistant
single peak at ˜13000 Da	single peak at ˜13000 Da	Substance P [SP]	
